Assay results reported in patent US20200095338A1.

Biological target: IL-4R (interleukin-4 receptor) (UniProt P24394)
Assay: cell-based or functional assay

UniProt P24394, sequence (P24394 26-825 limits assumed): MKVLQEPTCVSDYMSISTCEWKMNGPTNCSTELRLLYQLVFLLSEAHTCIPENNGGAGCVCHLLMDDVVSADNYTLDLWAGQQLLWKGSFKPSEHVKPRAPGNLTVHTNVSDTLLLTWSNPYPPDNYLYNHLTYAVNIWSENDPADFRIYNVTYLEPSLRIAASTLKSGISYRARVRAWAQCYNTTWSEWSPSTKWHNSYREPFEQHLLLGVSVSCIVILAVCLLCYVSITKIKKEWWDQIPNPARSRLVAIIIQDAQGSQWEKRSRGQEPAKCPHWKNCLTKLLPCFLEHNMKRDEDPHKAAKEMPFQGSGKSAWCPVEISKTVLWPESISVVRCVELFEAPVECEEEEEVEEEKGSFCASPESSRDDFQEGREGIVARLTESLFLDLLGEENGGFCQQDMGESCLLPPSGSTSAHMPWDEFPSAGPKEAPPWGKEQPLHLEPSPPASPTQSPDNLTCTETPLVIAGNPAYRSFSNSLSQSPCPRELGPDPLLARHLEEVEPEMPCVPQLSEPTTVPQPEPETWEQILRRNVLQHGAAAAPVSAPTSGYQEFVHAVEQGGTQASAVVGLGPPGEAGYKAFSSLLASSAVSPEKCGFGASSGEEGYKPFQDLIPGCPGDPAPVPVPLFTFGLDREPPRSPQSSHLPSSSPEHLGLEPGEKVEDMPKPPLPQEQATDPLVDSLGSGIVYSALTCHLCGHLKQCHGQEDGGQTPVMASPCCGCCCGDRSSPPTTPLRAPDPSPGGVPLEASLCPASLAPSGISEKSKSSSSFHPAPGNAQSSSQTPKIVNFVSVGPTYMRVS

B1: anti-IL-4R:anti-CD63 conjugate (streptavidin-conjugated anti-IL-4R antibody combined 1:1 with biotinylated anti-CD63 antibody MEM-259) (bispecific antibody, part only; not given: anti-CD63 MEM-259 antibody, constant regions, V domains shown, part only)
VH: EVQLVESGGGVVQPGRSLRLSCVASGFTFSDYGMHWVRQAPGKGLEWVAVIWYDGSIKYFRDSVKGRFTISRDNSKNTLYLQMNSLRVEDTAHYYCAKESSSWYFYHGLDVWGQGTMVTVSS
VL: EIVMTQSPLSLPVSPGEPASISCRSNQSLLHSNGNNYLAWYLQKPGQSPHLLIYLGSNRASGVPDRFSGSGSGTDFTLKISRVEAGDVGTYFCMQSLQAPPFTFGPGTKVEIKR
modifications: antibody conjugated to streptavidin
- attenuation of IL-4R activity relative to the control constructs: > 10%
